Data from article PMC13083842 (2026).

T1: soluble IL-6 receptor (sIL-6R) (human (from the printed accession …, UniProt P08887 20-355))
T1 chain: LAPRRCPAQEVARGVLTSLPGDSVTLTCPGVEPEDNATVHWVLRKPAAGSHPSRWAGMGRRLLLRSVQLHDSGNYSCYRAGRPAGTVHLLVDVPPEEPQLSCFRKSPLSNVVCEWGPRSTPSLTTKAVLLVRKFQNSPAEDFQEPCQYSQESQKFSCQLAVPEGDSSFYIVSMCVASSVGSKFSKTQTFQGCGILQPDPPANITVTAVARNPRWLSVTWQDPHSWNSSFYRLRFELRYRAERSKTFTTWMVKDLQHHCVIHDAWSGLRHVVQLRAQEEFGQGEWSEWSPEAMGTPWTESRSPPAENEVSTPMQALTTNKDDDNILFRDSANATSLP

B1: siltuximab-TGN 1:1 (antibody, V domains shown)
VH: EVQLVESGGKLLKPGGSLKLSCAASGFTFSSFAMSWFRQSPEKRLEWVAEISSGGSYTYYPDTVTGRFTISRDNAKNTLYLEMSSLRSEDTAMYYCARGLWGYYALDYWGQGTSVTVSS
VL: QIVLIQSPAIMSASPGEKVTMTCSASSSVSYMYWYQQKPGSSPRLLIYDTSNLASGVPVRFSGSGSGTSYSLTISRMEAEDAATYYCQQWSGYPYTFGGGTKLEIK
modifications: Tris-GalNAc-PEG5 (TGN) on accessible primary amines (lysines), not site-specific; coupling ratio 1:1; GPR = 0.2 for the antibody | Tris-GalNAc-PEG5 (TGN) on accessible primary amines (lysines), not site-specific; coupling ratio 1:1; GPR = 0.2 for the antibody
B2: siltuximab-TGN 1:5 (antibody, V domains shown)
VH: B1 VH
VL: B1 VL
modifications: Tris-GalNAc-PEG5 (TGN) on accessible primary amines (lysines), not site-specific; coupling ratio 1:5 | Tris-GalNAc-PEG5 (TGN) on accessible primary amines (lysines), not site-specific; coupling ratio 1:5
B3: siltuximab-TGN 1:10 (antibody, V domains shown)
VH: B1 VH
VL: B1 VL
modifications: Tris-GalNAc-PEG5 (TGN) on accessible primary amines (lysines), not site-specific; coupling ratio 1:10 | Tris-GalNAc-PEG5 (TGN) on accessible primary amines (lysines), not site-specific; coupling ratio 1:10
B4: siltuximab (antibody, V domains shown)
VH: B1 VH
VL: B1 VL
B5: tocilizumab-TGN 1:10 (antibody, V domains shown)
VH: QVQLQESGPGLVRPSQTLSLTCTVSGYSITSDHAWSWVRQPPGRGLEWIGYISYSGITTYNPSLKSRVTMLRDTSKNQFSLRLSSVTAADTAVYYCARSLARTTAMDYWGQGSLVTVSS
VL: DIQMTQSPSSLSASVGDRVTITCRASQDISSYLNWYQQKPGKAPKLLIYYTSRLHSGVPSRFSGSGSGTDFTFTISSLQPEDIATYYCQQGNTLPYTFGQGTKVEIK
modifications: Tris-GalNAc-PEG5 (TGN) on accessible primary amines (lysines), not site-specific; coupling ratio 1:10; GPR 4.75 for the antibody | Tris-GalNAc-PEG5 (TGN) on accessible primary amines (lysines), not site-specific; coupling ratio 1:10; GPR 4.75 for the antibody
B6: tocilizumab (antibody, V domains shown)
VH: B5 VH
VL: B5 VL
B7: tocilizumab-TGN 1:5 (antibody, V domains shown)
VH: B5 VH
VL: B5 VL
modifications: Tris-GalNAc-PEG5 (TGN) on accessible primary amines (lysines), not site-specific; coupling ratio 1:5; GPR 2.51 for the antibody | Tris-GalNAc-PEG5 (TGN) on accessible primary amines (lysines), not site-specific; coupling ratio 1:5; GPR 2.51 for the antibody
B8: tocilizumab-TGN 1:1 (antibody, V domains shown)
VH: B5 VH
VL: B5 VL
modifications: Tris-GalNAc-PEG5 (TGN) on accessible primary amines (lysines), not site-specific; coupling ratio 1:1; GPR = 0.35 for the antibody | Tris-GalNAc-PEG5 (TGN) on accessible primary amines (lysines), not site-specific; coupling ratio 1:1; GPR = 0.35 for the antibody
B9: tocilizumab-TGN 1:25 (antibody, V domains shown)
VH: B5 VH
VL: B5 VL
modifications: Tris-GalNAc-PEG5 (TGN) on accessible primary amines (lysines), not site-specific; coupling ratio 1:25; GPR of 15.36 for the antibody | Tris-GalNAc-PEG5 (TGN) on accessible primary amines (lysines), not site-specific; coupling ratio 1:25; GPR of 15.36 for the antibody
B10: sIL-6R-TGN 1:1 (receptor)
chain: T1 chain
modifications: Tris-GalNAc-PEG5 (TGN) on accessible primary amines (lysines), not site-specific; coupling ratio 1:1; GPR could not be determined
B11: sIL-6R-TGN 1:10 (receptor)
chain: T1 chain
modifications: Tris-GalNAc-PEG5 (TGN) on accessible primary amines (lysines), not site-specific; coupling ratio 1:10; GPR could not be determined
B12: sIL-6R-TGN 1:5 (receptor)
chain: T1 chain
modifications: Tris-GalNAc-PEG5 (TGN) on accessible primary amines (lysines), not site-specific; coupling ratio 1:5; GPR could not be determined

target: T2, interleukin-6 (IL-6) (human, UniProt P05231 30-212); assay: SPR
T2 sequence (P05231 30-212): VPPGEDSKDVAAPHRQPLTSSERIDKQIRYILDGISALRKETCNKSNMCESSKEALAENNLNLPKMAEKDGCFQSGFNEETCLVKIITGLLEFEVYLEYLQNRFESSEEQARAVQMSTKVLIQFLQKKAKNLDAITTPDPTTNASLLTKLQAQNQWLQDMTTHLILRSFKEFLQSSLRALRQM

Kd | Binder
< 0.019 nM | B1
< 0.027 nM | B2
< 0.036 nM | B3
< 0.022 nM | B4

Target: T1, soluble IL-6 receptor (sIL-6R)
Assay: SPR

Kd | Binder
0.212 nM | B5
0.068 nM | B6
0.093 nM | B7
< 0.038 nM | B8
0.328 nM | B9

target: T2, interleukin-6 (IL-6); assay: SPR; remark: another data set of the same source

Kd | Binder
166 nM | B10
428 nM | B11
230 nM | B12
